According to patent US20240209076A1 (KODIAK SCIENCES, published 2024):

B1: anti-IL-6 antibody, heavy chain T63Y, G66D / light chain M32L, M50D, N52S, M88Q (antibody, IgG1, V domains shown)
VH: EVQLVESGGGLVQPGGSLRLSCAASGFTFSPFAMSWVRQAPGKGLEWVAKISPGGSWTYYSDYVTDRFTFSLDTSKSTAYLQMNSLRAEDTAVYYCARQLWGYYALDIWGQGTLVTVSS
VL: DIQLTQSPSSLSASVGDRVTITCSASISVSYLYWYQQKPGKAPKLLIYDDSSLASGVPSRFSGSGSGTDFTLTISSLQPEDFATYYCQQWSGYPYTFGQGTKVEIK
notes: Full IgG1 (Expi293); VL = variant III
B2: anti-IL-6 antibody, heavy chain T65A, G66D / light chain M32L, M50D, N52S, M88Q (antibody, IgG1, V domains shown)
VH: EVQLVESGGGLVQPGGSLRLSCAASGFTFSPFAMSWVRQAPGKGLEWVAKISPGGSWTYYSDTVADRFTFSLDTSKSTAYLQMNSLRAEDTAVYYCARQLWGYYALDIWGQGTLVTVSS
VL: DIQLTQSPSSLSASVGDRVTITCSASISVSYLYWYQQKPGKAPKLLIYDDSSLASGVPSRFSGSGSGTDFTLTISSLQPEDFATYYCQQWSGYPYTFGQGTKVEIK
notes: as for B1
B3: anti-IL-6 antibody, heavy chain T65D, G66D / light chain M32L, M50D, N52S, M88Q (antibody, IgG1, V domains shown)
VH: EVQLVESGGGLVQPGGSLRLSCAASGFTFSPFAMSWVRQAPGKGLEWVAKISPGGSWTYYSDTVDDRFTFSLDTSKSTAYLQMNSLRAEDTAVYYCARQLWGYYALDIWGQGTLVTVSS
VL: DIQLTQSPSSLSASVGDRVTITCSASISVSYLYWYQQKPGKAPKLLIYDDSSLASGVPSRFSGSGSGTDFTLTISSLQPEDFATYYCQQWSGYPYTFGQGTKVEIK
notes: as for B1
B4: anti-IL-6 antibody, heavy chain T65E, G66D / light chain M32L, M50D, N52S, M88Q (antibody, IgG1, V domains shown)
VH: EVQLVESGGGLVQPGGSLRLSCAASGFTFSPFAMSWVRQAPGKGLEWVAKISPGGSWTYYSDTVEDRFTFSLDTSKSTAYLQMNSLRAEDTAVYYCARQLWGYYALDIWGQGTLVTVSS
VL: DIQLTQSPSSLSASVGDRVTITCSASISVSYLYWYQQKPGKAPKLLIYDDSSLASGVPSRFSGSGSGTDFTLTISSLQPEDFATYYCQQWSGYPYTFGQGTKVEIK
notes: as for B1
B5: anti-IL-6 antibody, heavy chain T65F, G66D / light chain M32L, M50D, N52S, M88Q (antibody, IgG1, V domains shown)
VH: EVQLVESGGGLVQPGGSLRLSCAASGFTFSPFAMSWVRQAPGKGLEWVAKISPGGSWTYYSDTVFDRFTFSLDTSKSTAYLQMNSLRAEDTAVYYCARQLWGYYALDIWGQGTLVTVSS
VL: DIQLTQSPSSLSASVGDRVTITCSASISVSYLYWYQQKPGKAPKLLIYDDSSLASGVPSRFSGSGSGTDFTLTISSLQPEDFATYYCQQWSGYPYTFGQGTKVEIK
notes: as for B1
B6: anti-IL-6 antibody, heavy chain T65G, G66D / light chain M32L, M50D, N52S, M88Q (antibody, IgG1, V domains shown)
VH: EVQLVESGGGLVQPGGSLRLSCAASGFTFSPFAMSWVRQAPGKGLEWVAKISPGGSWTYYSDTVGDRFTFSLDTSKSTAYLQMNSLRAEDTAVYYCARQLWGYYALDIWGQGTLVTVSS
VL: DIQLTQSPSSLSASVGDRVTITCSASISVSYLYWYQQKPGKAPKLLIYDDSSLASGVPSRFSGSGSGTDFTLTISSLQPEDFATYYCQQWSGYPYTFGQGTKVEIK
notes: as for B1
B7: anti-IL-6 antibody, heavy chain T65H, G66D / light chain M32L, M50D, N52S, M88Q (antibody, IgG1, V domains shown)
VH: EVQLVESGGGLVQPGGSLRLSCAASGFTFSPFAMSWVRQAPGKGLEWVAKISPGGSWTYYSDTVHDRFTFSLDTSKSTAYLQMNSLRAEDTAVYYCARQLWGYYALDIWGQGTLVTVSS
VL: DIQLTQSPSSLSASVGDRVTITCSASISVSYLYWYQQKPGKAPKLLIYDDSSLASGVPSRFSGSGSGTDFTLTISSLQPEDFATYYCQQWSGYPYTFGQGTKVEIK
notes: as for B1
B8: anti-IL-6 antibody, heavy chain T65K, G66D / light chain M32L, M50D, N52S, M88Q (antibody, IgG1, V domains shown)
VH: EVQLVESGGGLVQPGGSLRLSCAASGFTFSPFAMSWVRQAPGKGLEWVAKISPGGSWTYYSDTVKDRFTFSLDTSKSTAYLQMNSLRAEDTAVYYCARQLWGYYALDIWGQGTLVTVSS
VL: DIQLTQSPSSLSASVGDRVTITCSASISVSYLYWYQQKPGKAPKLLIYDDSSLASGVPSRFSGSGSGTDFTLTISSLQPEDFATYYCQQWSGYPYTFGQGTKVEIK
notes: as for B1

The binders below were run against T1, human IL-6 (human, UniProt P05231 30-212) (assay: SPR Biacore, supernatant Ab on Protein A chip, 37 C).
T1 construct: IL-6 flowed over captured antibodies
Experimental: Antibodies were captured on a Protein A chip (GE) by injecting 1:20 cell supernatant dilutions at 10 μL/min for 60 seconds. […] The sensor chip was regenerated by a 60 seconds injection of 10 mM Glycine pH 1.7 at the flow rate of 50 μL/min. […] For this setup, 1 μg/mL of purified antibody was injected over a Protein A chip at 10 μL/min for 25 seconds. […] The sensor chip was regenerated by a 60 seconds injection of 10 mM Glycine pH 1.7 at flow rate of 50 μL/min. Data analysis for supernatant and purified samples were performed using BIAevaluation software (GE). All sensorgrams were double reference subtracted and fit using a 1:1 Langmuir binding model.

T1 sequence (P05231 30-212 limits assumed): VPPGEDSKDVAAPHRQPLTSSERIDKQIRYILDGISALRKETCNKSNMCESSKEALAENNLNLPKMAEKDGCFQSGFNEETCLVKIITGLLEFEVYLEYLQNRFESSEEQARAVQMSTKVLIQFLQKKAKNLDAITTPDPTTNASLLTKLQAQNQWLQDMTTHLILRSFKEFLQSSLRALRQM

B1 and B2 are within 1.5-fold of each other in Kd: 241 pM for the first, 239 pM for the second.

Going from B3 to B4, the Kd falls from 465 pM to 279 pM (1.7-fold).

B5 and B6 are within 1.5-fold of each other in Kd: 291 pM for the first, 311 pM for the second.

B7 and B8 are within 1.5-fold of each other in Kd: 297 pM for the first, 356 pM for the second.

B1 and B2 are within 1.5-fold of each other in koff: 0.000459 s⁻¹ for the first, 0.000542 s⁻¹ for the second.

B3 and B4 are within 1.5-fold of each other in koff: 0.00048 s⁻¹ for the first, 0.000474 s⁻¹ for the second.

B5 and B6 are within 1.5-fold of each other in koff: 0.000391 s⁻¹ for the first, 0.000477 s⁻¹ for the second.

B7 and B8 are within 1.5-fold of each other in koff: 0.000423 s⁻¹ for the first, 0.000579 s⁻¹ for the second.

B1 and B2 are within 1.5-fold of each other in kon: 1.91e+06 M⁻¹ s⁻¹ for the first, 2.27e+06 M⁻¹ s⁻¹ for the second.

Going from B3 to B4, the kon rises from 1.03e+06 M⁻¹ s⁻¹ to 1.7e+06 M⁻¹ s⁻¹ (1.7-fold).

B5 and B6 are within 1.5-fold of each other in kon: 1.34e+06 M⁻¹ s⁻¹ for the first, 1.53e+06 M⁻¹ s⁻¹ for the second.

B7 and B8 are within 1.5-fold of each other in kon: 1.43e+06 M⁻¹ s⁻¹ for the first, 1.63e+06 M⁻¹ s⁻¹ for the second.
